Consider one molecule from article PMC12276012, “Molecular mechanisms of biomolecular condensate formation in Drosophila melanogaster siRNA biogenesis”.

In this data set the target is T1, Loqs-PD 1,2-mut (Drosophila melanogaster, UniProt Q9VJY9-4 1-359, K189A;K190A;K301A;K302A).
T1 sequence: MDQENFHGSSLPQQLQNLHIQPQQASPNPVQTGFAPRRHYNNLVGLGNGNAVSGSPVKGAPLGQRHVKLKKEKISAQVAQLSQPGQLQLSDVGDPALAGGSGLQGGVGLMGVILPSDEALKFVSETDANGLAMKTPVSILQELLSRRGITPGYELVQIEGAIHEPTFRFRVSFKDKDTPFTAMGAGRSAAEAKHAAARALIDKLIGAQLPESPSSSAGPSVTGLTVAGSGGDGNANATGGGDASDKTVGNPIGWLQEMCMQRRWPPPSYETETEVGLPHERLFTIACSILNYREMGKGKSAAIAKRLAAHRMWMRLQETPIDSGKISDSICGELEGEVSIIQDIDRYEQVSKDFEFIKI
The data set can be described thus: EMSA; 400 nM RNA, 400-3200 nM protein; EMSA: 20 mM sodium phosphate pH 6.5, 150 mM NaCl, 15% glycerol, 15 min, 1% agarose 1x TBE; NMR: 20 mM sodium phosphate pH 6.5, PS-I or PS-II buffer (50-500 mM NaCl), 292 K for Loqs-PD deltaC. The following applies: protein: recombinant; tags: His6-GB1 or His6 tag, cleaved by TEV; label: 3' Cy5; hairpin, 21 bp stem, GUGA loop. For orientation: In EMSA bound probe runs differently from free probe, usually more slowly.

Turning to GGAGCUUUCAAAAUGAUCUCCGUGAGGAGAUCAUUUUGAAAGCUCC (structured_RNA, 3' pCp-Cy5 ligated (adds one C)) [21 bp hairpin dsRNA, Cy5], the binding result was “no binding”.
